Biological target: T1, CBM3a (family IIIa carbohydrate binding module) of the cellulosomal scaffolding protein CipC (Clostridium cellulolyticum (Ruminiclostridium cellulolyticum) H10)
T1 chain: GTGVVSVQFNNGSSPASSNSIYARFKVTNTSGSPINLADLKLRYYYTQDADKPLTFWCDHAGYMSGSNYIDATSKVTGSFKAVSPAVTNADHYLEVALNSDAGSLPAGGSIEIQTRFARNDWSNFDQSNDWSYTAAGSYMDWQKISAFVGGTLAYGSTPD
Test: ITC
Conditions: domain or fragment; C-terminal His6 tag omitted. Limits not printed and no X2 feature in the entry: estimated from the CipC module order (CBM3a-X2-Coh1..7-X2-Coh8) and the ~95-aa X2 size (1EHX is the X2-N homologue). Both edges are uncertain by about 10 residues; the segment should contain the NGNT motif. Methods sometimes call this protein X2-N, but Results state X2-C was used in vitro. / C-terminal His6 tag omitted; modification not given

B1: X2-C module of the cellulosomal scaffolding protein CipC (protein)
chain: VGDVTPVNPTITPSTASFDKYVPANVNVTLTPNGNTFKGITGLTSGTDFTVSNNVVTISKSYLSTLAVGSKTLTFDFGVTNNPVLTLTITDSTPVV
  Ka: 80200 M⁻¹
